Results from US20080044360A1 (COLLAGEN MEDICAL, published 2008).
Bridge positions count the residues as written; N and C are the ends. Square brackets hold non-standard residues; d marks the D form. Primed or numbered codes have the meaning given here. Side chains are listed from the residue outwards. Ends that are not written are not given here. * marks the point of attachment. Bpa = N[C@@H](Cc1ccc(C(=O)c2ccccc2)cc1)C(=O)O; Tyr(3-Cl) = N[C@@H](Cc1ccc(O)c(Cl)c1)C(=O)O; Bip = N[C@@H](Cc1ccc(-c2ccccc2)cc1)C(=O)O; Gd^T(3) = GdDTPA attached via thiourea; 1Nal = N[C@@H](Cc1cccc2ccccc12)C(=O)O; 2Nal = N[C@@H](Cc1ccc2ccccc2c1)C(=O)O; Bta = N[C@@H](Cc1csc2ccccc12)C(=O)O; Hyp = O=C(O)[C@@H]1C[C@@H](O)CN1; hPhe = N[C@@H](CCc1ccccc1)C(=O)O; 2Pal = N[C@@H](Cc1ccccn1)C(=O)O; 4Pal = N[C@@H](Cc1ccncc1)C(=O)O; Cha = N[C@@H](CC1CCCCC1)C(=O)O; Pen = CC(C)(S)[C@H](N)C(=O)O; Gd^G = not defined here; Gd^T = not defined here; Gd^T″ = GdDTPA-thiourea; Cbz = O=C(OCc1ccccc1)*; Dap = NC[C@H](N)C(=O)O; AEEA = NCCOCCOCC(=O)O; Aib = CC(C)(N)C(=O)O

What was measured:
[1] = biological target: T1, human collagen type I, acid soluble, extracted from placenta (Sigma C7774) (human, UniProt P02452 162-1218; P08123 80-1119); test: dried collagen assay
T1 construct: tissue extract, gelled and dried in wells; also called dried human collagen; h-Collagen
T1 sequence (P02452 162-1218 limits assumed, chain 1 of 2): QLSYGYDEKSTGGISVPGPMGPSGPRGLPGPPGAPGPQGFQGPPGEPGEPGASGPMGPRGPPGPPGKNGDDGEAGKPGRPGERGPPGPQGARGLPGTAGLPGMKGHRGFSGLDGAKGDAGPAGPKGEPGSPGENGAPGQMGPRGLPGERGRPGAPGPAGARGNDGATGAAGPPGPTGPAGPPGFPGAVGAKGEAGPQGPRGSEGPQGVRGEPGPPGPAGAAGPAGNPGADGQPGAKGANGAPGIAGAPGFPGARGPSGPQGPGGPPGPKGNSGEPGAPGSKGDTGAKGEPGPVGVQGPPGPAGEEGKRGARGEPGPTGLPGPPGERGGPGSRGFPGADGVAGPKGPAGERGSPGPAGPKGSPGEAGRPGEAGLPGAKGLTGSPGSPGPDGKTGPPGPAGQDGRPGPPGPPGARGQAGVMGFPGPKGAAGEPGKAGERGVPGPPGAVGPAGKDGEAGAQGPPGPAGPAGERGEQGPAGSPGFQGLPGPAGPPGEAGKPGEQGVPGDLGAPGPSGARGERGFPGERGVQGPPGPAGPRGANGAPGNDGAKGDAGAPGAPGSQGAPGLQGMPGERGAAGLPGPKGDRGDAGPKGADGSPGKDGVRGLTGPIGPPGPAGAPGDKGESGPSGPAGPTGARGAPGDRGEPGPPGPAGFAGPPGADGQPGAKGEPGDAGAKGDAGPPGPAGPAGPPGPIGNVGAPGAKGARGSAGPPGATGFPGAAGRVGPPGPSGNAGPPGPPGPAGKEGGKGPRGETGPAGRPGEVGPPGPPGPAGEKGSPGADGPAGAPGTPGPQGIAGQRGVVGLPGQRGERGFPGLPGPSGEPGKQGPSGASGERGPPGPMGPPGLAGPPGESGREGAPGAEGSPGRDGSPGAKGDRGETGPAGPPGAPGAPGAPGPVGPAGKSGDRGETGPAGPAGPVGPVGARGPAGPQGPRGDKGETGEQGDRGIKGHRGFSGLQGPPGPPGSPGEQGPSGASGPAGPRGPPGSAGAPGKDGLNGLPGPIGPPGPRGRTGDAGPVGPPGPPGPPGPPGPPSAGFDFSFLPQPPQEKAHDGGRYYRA
T1 sequence (P08123 80-1119 limits assumed, chain 2 of 2): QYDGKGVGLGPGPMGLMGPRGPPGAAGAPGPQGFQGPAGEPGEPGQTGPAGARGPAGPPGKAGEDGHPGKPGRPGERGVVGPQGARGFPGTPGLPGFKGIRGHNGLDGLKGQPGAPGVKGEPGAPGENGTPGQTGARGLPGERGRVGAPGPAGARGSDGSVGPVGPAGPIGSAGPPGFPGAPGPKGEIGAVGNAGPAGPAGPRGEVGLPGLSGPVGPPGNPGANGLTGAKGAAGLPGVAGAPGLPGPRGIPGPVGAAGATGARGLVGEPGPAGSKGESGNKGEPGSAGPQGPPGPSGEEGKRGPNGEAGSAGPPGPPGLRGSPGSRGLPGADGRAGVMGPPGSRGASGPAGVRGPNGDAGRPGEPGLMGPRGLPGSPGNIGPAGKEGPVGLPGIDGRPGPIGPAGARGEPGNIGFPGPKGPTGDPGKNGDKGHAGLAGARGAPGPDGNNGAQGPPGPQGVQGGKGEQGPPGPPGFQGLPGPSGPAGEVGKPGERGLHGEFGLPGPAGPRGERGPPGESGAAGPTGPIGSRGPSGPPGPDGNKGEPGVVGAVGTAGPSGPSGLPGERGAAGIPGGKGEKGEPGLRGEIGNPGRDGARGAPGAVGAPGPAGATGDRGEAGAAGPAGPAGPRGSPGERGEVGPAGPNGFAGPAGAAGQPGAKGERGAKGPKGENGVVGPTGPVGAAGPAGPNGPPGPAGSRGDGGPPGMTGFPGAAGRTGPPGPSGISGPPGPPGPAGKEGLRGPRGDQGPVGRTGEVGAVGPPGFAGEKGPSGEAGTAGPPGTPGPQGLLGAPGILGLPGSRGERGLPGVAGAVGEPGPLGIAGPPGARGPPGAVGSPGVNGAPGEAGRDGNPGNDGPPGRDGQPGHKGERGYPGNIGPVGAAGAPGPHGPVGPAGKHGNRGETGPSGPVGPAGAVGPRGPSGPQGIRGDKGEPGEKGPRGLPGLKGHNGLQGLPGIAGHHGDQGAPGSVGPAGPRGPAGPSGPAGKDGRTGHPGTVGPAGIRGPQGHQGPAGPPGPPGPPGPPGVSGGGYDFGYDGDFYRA

[2] = biological target: T2, rat collagen, acid soluble, type I, rat tail (Upstate 08-115) (rat, UniProt P02454 152-1207; P02466 86-1125); test: dried collagen assay
T2 construct: tissue extract, gelled and dried in wells; also called dried rat collagen
T2 sequence (P02454 152-1207, chain 1 of 2): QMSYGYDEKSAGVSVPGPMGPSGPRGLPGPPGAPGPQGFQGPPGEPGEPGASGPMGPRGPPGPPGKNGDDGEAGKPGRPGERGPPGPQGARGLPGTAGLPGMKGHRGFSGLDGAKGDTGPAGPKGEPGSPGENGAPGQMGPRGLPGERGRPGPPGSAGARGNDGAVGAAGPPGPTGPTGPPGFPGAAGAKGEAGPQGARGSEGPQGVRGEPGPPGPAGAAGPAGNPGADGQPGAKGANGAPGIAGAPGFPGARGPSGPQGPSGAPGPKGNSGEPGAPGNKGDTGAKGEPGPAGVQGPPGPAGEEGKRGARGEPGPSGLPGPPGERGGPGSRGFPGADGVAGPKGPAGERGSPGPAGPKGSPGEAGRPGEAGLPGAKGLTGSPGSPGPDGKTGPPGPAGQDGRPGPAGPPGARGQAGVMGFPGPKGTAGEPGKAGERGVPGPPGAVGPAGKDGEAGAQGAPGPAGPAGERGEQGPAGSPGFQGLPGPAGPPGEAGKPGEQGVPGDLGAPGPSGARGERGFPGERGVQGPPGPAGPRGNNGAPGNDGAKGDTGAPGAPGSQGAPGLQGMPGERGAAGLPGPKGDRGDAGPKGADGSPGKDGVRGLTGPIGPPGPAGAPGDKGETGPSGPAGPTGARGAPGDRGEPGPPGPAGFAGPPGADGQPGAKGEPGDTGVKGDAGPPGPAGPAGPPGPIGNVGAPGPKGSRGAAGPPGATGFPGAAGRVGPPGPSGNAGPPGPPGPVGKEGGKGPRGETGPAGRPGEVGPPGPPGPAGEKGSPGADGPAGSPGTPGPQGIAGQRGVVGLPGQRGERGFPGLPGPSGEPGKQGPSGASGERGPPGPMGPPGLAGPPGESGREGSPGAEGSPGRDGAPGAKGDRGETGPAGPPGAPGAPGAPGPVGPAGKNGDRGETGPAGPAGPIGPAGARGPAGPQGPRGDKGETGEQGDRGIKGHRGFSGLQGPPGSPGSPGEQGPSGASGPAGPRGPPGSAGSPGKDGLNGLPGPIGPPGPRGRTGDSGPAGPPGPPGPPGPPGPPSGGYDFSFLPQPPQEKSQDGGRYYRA
T2 sequence (P02466 86-1125, chain 2 of 2): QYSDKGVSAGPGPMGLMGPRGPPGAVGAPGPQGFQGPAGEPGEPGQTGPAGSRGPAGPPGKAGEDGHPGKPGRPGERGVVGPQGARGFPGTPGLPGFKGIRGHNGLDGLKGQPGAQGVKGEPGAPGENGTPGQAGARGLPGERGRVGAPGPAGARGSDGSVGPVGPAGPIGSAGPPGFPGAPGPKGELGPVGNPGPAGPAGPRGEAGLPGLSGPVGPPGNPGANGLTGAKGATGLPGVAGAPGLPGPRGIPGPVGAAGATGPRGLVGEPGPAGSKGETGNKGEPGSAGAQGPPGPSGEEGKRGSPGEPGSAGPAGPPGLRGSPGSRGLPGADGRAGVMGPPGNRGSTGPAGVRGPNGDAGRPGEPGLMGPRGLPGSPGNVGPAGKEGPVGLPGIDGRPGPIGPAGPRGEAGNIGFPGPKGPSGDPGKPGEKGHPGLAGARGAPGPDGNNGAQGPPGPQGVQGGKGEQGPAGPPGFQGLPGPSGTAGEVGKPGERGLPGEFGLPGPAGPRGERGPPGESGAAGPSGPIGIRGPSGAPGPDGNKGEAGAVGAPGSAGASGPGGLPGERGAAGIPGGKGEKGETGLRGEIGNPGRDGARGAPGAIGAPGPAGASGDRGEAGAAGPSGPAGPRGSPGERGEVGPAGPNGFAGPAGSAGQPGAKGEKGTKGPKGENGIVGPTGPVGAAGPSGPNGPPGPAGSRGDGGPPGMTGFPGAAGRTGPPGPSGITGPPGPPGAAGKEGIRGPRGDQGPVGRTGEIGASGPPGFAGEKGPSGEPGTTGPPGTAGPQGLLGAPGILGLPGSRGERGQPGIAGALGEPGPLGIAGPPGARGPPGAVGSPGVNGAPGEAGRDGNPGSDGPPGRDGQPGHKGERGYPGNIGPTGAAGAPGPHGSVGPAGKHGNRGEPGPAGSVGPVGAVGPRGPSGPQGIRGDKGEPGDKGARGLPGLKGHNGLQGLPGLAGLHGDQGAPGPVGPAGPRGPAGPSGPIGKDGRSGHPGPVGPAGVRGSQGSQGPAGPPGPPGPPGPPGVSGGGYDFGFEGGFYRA

For {Gd^T}-GQWHCTTYFPHHYCLYG (disulfide 5-14 (inferred); not fully specified (C-terminus); reading uncertain) [Compound ID 861], the “% bound” value [1] was 73% and the “% bound” value [2] was 79%.

For {Gd^T″}-PPWHCTTLFPHH[dY]CLYG (disulfide 5-14 (inferred); not fully specified (C-terminus)) [Compound ID 912], the “% bound” value [1] was 20% and the “% bound” value [2] was 0%.

With {Gd^T″}-GQWHCTTDFPHHYCL[Bpa]G (disulfide 5-14) [Compound ID 889] the “% bound” value [1] was 38% and the “% bound” value [2] was 19%.

For {Gd^T}-PPQWHCTTRFPHHYCLYG (disulfide 6-15 (inferred); not fully specified (C-terminus); reading uncertain) [Compound ID 854], the “% bound” value [1] was 64% and the “% bound” value [2] was 56%.

In the case of {Gd^T″}-GQWHCTTDFPH[2Pal]YCLYG (disulfide 5-14) [Compound ID 888], the “% bound” value [1] is reported as 38% and the “% bound” value [2] is reported as 30%.

{Gd^T″}-GQWHCTTRFPHH[Bip]CLYG (disulfide 5-14) [Compound ID 873] was tested, and the “% bound” value [1] was 38% and the “% bound” value [2] was 33%.

With {Gd^T″}-GK([Gly-Gd^T″])QWHCTTYFPHHYCLYG (disulfide 6-15 (inferred)) [Compound ID 875] the “% bound” value [1] was 64% and the “% bound” value [2] was 60%.

With {Gd^T″}-GQWHCTTRFPHHYCLYG[dK](Gd^T″) (disulfide 5-14 (inferred); not fully specified (C-terminus)) [Compound ID 808] the “% bound” value [1] was 25% and the “% bound” value [2] was 19%.

With {Gd^T″}-GQWTCYGDEYTWYCNYE (disulfide 5-14 (inferred); not fully specified (C-terminus)) [Compound ID 826] the “% bound” value [1] was 87% and the “% bound” value [2] was 71%.

{Gd^T″}-GQWHCTTRFPHH[1Nal]CLYG (disulfide 5-14) [Compound ID 867] was tested, and the “% bound” value [1] was 55% and the “% bound” value [2] was 48%.

For {Gd^T(3)}-GQWHCTTLFPHH[1Nal]CLYG (disulfide 5-14; not fully specified (C-terminus)) [Compound ID 913], the “% bound” value [1] was 78% and the “% bound” value [2] was 64%.

In the case of {Gd^T(3)}-GQWH[Pen]TTRFPHHYCLYG (disulfide 5-14; not fully specified (C-terminus)) [Compound ID 896], the “% bound” value [1] is reported as 50% and the “% bound” value [2] is reported as 41%.

With GQWHCTTYFPHHYCLYG (disulfide 5-14 (inferred); not fully specified (N-terminus)) [Compound ID 919] the “% bound” value [1] was 93% and the “% bound” value [2] was 93%.

{Gd^T″}-GQWHCTTR[Bip]PHHYCLYG (disulfide 5-14) [Compound ID 881] was tested, and the “% bound” value [1] was 19% and the “% bound” value [2] was 28%.

In the case of {Gd^T(3)}-GQWHCTTRFPHHYC[hPhe]YG (disulfide 5-14) [Compound ID 932], the “% bound” value [1] is reported as 59% and the “% bound” value [2] is reported as 79%.

{Gd^T″}-GQWHCTTYFPHH[dY]CLYG (disulfide 5-14 (inferred); not fully specified (C-terminus)) [Compound ID 914] was tested, and the “% bound” value [1] was 19% and the “% bound” value [2] was 0%.

With {Gd^G}-GQWTCSGDEYTWHCNY (disulfide 5-14 (inferred); not fully specified (C-terminus); reading uncertain) [Compound ID 823] the “% bound” value [1] was 53% and the “% bound” value [2] was 28%.

In the case of {Gd^T″}-GK([Gly-Gd^T″])WHCTTK(Gd^T″)FPHHYCLY[Bip] (disulfide 5-14; not fully specified (C-terminus), also called Comp ID No:800) [Compound ID 800], the “% bound” value [1] is reported as 85% and the “% bound” value [2] is reported as 88%.

{Gd^T(3)}-K(Gd^T(3))K(Gd^T(3))WHCTTK(Gd^T(3))FPHHYCLY[Bip] (disulfide 5-14 (inferred)) [Compound ID 997] was tested, and the “% bound” value [1] was 53% and the “% bound” value [2] was 55%.

With {Gd^T(3)}-GK([Gly-Gd^T(3)])WHCTTYFPHHYCLY[Bip] (disulfide 5-14) [Compound ID 950] the “% bound” value [1] was 78% and the “% bound” value [2] was 79%.

In the case of {Gd^T″}-GQWHCTT[Tyr(3-Cl)]FPHH[dY]CLYG (disulfide 5-14 (inferred); not fully specified (C-terminus)) [Compound ID 916], the “% bound” value [1] is reported as 23% and the “% bound” value [2] is reported as 0%.

{Gd^T}-PPQWHCTTRF[Hyp]HHYCLYG (disulfide 6-15; not fully specified (C-terminus); reading uncertain) [Compound ID 856] was tested, and the “% bound” value [1] was 52% and the “% bound” value [2] was 42%.

In the case of {Gd^T″}-GQWHCTTRFPHHYCLYGK(Gd^T″) (disulfide 5-14 (inferred); not fully specified (C-terminus)) [Compound ID 807], the “% bound” value [1] is reported as 48% and the “% bound” value [2] is reported as 45%.

For Cbz-GQWHCTTRFPHHYCLYGK (disulfide 5-14 (inferred); not fully specified (residue 18)) [Compound ID 925], the “% bound” value [1] was 64% and the “% bound” value [2] was 62%.

For GQWTCSGDAYTWHCNYE (disulfide 5-14 (inferred); not fully specified (N-terminus, C-terminus)) [Compound ID 838], the “% bound” value [1] was 70% and the “% bound” value [2] was 61%.

In the case of {Gd^T}-GQWTCSGDEYTWHCNYA (disulfide 5-14 (inferred); not fully specified (C-terminus); reading uncertain) [Compound ID 841], the “% bound” value [1] is reported as 51% and the “% bound” value [2] is reported as 28%.

With {Gd^T}-GQWTCSGDEYTWHCAYE (disulfide 5-14 (inferred); not fully specified (C-terminus); reading uncertain) [Compound ID 839] the “% bound” value [1] was 30% and the “% bound” value [2] was 11%.

With {Gd^T(3)}-GQWHCTT[Cha]FPHH[dY]CLYG (disulfide 5-14; not fully specified (C-terminus)) [Compound ID 918] the “% bound” value [1] was 19% and the “% bound” value [2] was 0%.

{Gd^T}-DWTC[4Pal]GDEYTWHCNYE (disulfide 4-13; not fully specified (C-terminus); reading uncertain) [Compound ID 849] was tested, and the “% bound” value [1] was 64% and the “% bound” value [2] was 42%.

With {Gd^T″}-GQWHCTTDFPH[Dap](Gd^T″)YCLYG (disulfide 5-14) [Compound ID 887] the “% bound” value [1] was 0% and the “% bound” value [2] was 16%.

In the case of {Gd^T(3)}-GQWHCTTDFPHHYCL[2Nal]G (disulfide 5-14) [Compound ID 891], the “% bound” value [1] is reported as 79% and the “% bound” value [2] is reported as 70%.

For GQWHCTTYFPHHYCLYG-{AEEA-Gd^G} (disulfide 5-14 (inferred); reading uncertain, no N-terminal chelate printed) [Compound ID 874], the “% bound” value [1] was 45% and the “% bound” value [2] was 28%.

For {Gd^T″}-AWHCTTLFPHH[dY]CLYG (disulfide 4-13 (inferred); not fully specified (C-terminus)) [Compound ID 909], the “% bound” value [1] was 14% and the “% bound” value [2] was 0%.

In the case of {Gd^T}-DWTCSGDEYTWHCNY[Aib] (disulfide 4-13; not fully specified (C-terminus); reading uncertain) [Compound ID 850], the “% bound” value [1] is reported as 75% and the “% bound” value [2] is reported as 67%.

{Gd^T″}-GQ[2Nal]HCTTRFPHHYCLYG (disulfide 5-14) [Compound ID 872] was tested, and the “% bound” value [1] was 41% and the “% bound” value [2] was 35%.

{Gd^T″}-GQ[Bta]HCTTRFPHHYCLYG (disulfide 5-14) [Compound ID 868] was tested, and the “% bound” value [1] was 36% and the “% bound” value [2] was 40%.

In the case of {Gd^T}-GQWHCTTR[1Nal]PHHYCLYG (disulfide 5-14; not fully specified (C-terminus); reading uncertain) [Compound ID 860], the “% bound” value [1] is reported as 60% and the “% bound” value [2] is reported as 45%.

{Gd^T″}-GQWHCTTD[Bpa]PHHYCLYG (disulfide 5-14) [Compound ID 882] was tested, and the “% bound” value [1] was 0% and the “% bound” value [2] was 13%.

With {Gd^T(3)}-GQWHCTTD[2Nal]PHHYCLYG (disulfide 5-14; not fully specified (C-terminus)) [Compound ID 894] the “% bound” value [1] was 20% and the “% bound” value [2] was 15%.
